B1: TAP–Bag-1S [human] / Calnexin [human (endogenous in MCF-7 and MCF-12A)] (parent)
chain 1: MNRSQEVTRDEESTRSEEVTREEMAAAGLTVTVTHSNEKHDLHVTSQQGSSEPVVQDLAQVVEEVIGVPQSFQKLIFKGKSLKEMETPLSALGIQDGCRVMLIGKKNSPQEEVELKKLKHLEKSVEKIADQLEELNKELTGIQQGFLPKDLQAEALCKLDRRVKATIEQFMKILEEIDTLILPENFKDSRLKRKGLVKKVQAFLAECDTVEQNICQETERLQSTNFALAE
chain 2: HDGHDDDVIDIEDDLDDVIEEVEDSKPDTTAPPSSPKVTYKAPVPTGEVYFADSFDRGTLSGWILSKAKKDDTDDEIAKYDGKWEVEEMKESKLPGDKGLVLMSRAKHHAISAKLNKPFLFDTKPLIVQYEVNFQNGIECGGAYVKLLSKTPELNLDQFHDKTPYTIMFGPDKCGEDYKLHFIFRHKNPKTGIYEEKHAKRPDADLKTYFTDKKTHLYTLILNPDNSFEILVDQSVVNSGNLLNDMTPPVNPSREIEDPEDRKPEDWDERPKIPDPEAVKPDDWDEDAPAKIPDEEATKPEGWLDDEPEYVPDPDAEKPEDWDEDMDGEWEAPQIANPRCESAPGCGVWQRPVIDNPNYKGKWKPPMIDNPSYQGIWKPRKIPNPDFFEDLEPFRMTPFSAIGLELWSMTSDIFFDNFIICADRRIVDDWANDGWGLKKAADGAAEPGVVGQMIEAAEERPWLWVVYILTVALPVFLVILFCCSGKKQTSGMEYKKTDAPQPDVKEEEEEKEEEKDKGDEEEEGEEKLEEKQKSDAEEDGGTVSQEEEDRKPKAEEDEILNRSPRNRKPRRE
B2: TAP–Bag-1S [human] / PDIA3 [human (endogenous in MCF-7 and MCF-12A)] (parent)
chain 1: B1 chain 1
chain 2: SDVLELTDDNFESRISDTGSAGLMLVEFFAPWCGHCKRLAPEYEAAATRLKGIVPLAKVDCTANTNTCNKYGVSGYPTLKIFRDGEEAGAYDGPRTADGIVSHLKKQAGPASVPLRTEEEFKKFISDKDASIVGFFDDSFSEAHSEFLKAASNLRDNYRFAHTNVESLVNEYDDNGEGIILFRPSHLTNKFEDKTVAYTEQKMTSGKIKKFIQENIFGICPHMTEDNKDLIQGKDLLIAYYDVDYEKNAKGSNYWRNRVMMVAKKFLDAGHKLNFAVASRKTFSHELSDFGLESTAGEIPVVAIRTAKGEKFVMQEEFSRDGKALERFLQDYFDGNLKRYLKSEPIPESNDGPVKVVVAENFDEIVNNENKDVLIEFYAPWCGHCKNLEPKYKELGEKLSKDPNIVIAKMDATANDVPSPYEVRGFPTIYFSPANKKLNPKKYEGGRELSDFISYLQREATNPPVIQEEKPKKKKKAQEDL

Variants of: B1
Experiment: TAP pull-down interactome analysis (LC-MS/MS)
Details: with Calnexin [human (endogenous in MCF-7 and MCF-12A)]; MCF-7 cells; read off a plot

Row | Variant | screen value
1 | chain 1 MNRSQEVTRDEESTRSEEVTREEMAAAGLTVTVTHSNEKHDLHVTSQQGSSEPVVQDLAQVVEEVIGVPQSFQKLIFKGKSLKEMETPLSALGIQDGCRVMLKGKKNSPQEEVELKKLKHLEKSVEKIADQLEELNKELTGIQQGFLPKDLQAEALCKLDRRVKATIEQFMKILEEIDTLILPENFKDSRLKRKGLVKKVQAFLAECDTVEQNICQETERLQSTNFALAE [chain 1 I103K] | -1.1 log2
2 | chain 1 MNRSQEVTRDEESTRSEEVTREEMAAAGLTVTVTHSNEKHDLHVTSQQGSSEPVVQDLAQVVEEVIGVPQSFQKLIFKGKSLKEMETPLSALGIQDGCRVMLIGKKNSPQEEVELKKLKHLEKSVEKIADQLEELNKELTGIQQGFLPKDLQAEALCKLDDRVKATIEQFMKILEEIDTLILPENFKDSRLKRKGLVKKVQAFLAECDTVEQNICQETERLQSTNFALAE [chain 1 R161D] | -1.6 log2
3 | chain 1 MNRSQEVTRDEESTRSEEVTREEMAAAGLTVTVTHSNEKHDLHVTSQQGSSEPVVQDLAQVVEEVIGVPQSFQKLIFKGKSLKEMETPLSALGIQDGCRVMLIGKKNSPQEEVELKKLKHLEKSVEKIADQLEELNKELTGIQQGFLPKDLQAEALCKLDREVKATIEQFMKILEEIDTLILPENFKDSRLKRKGLVKKVQAFLAECDTVEQNICQETERLQSTNFALAE [chain 1 R162E] | -1.1 log2
4 | chain 1 MNRSQEVTRDEESTRSEEVTREEMAAAGLTVTVTHSNEKHDLHVTSQQGSSEPVVQDLAQVVEEVIGVPQSFQKLIFKGKSLKEMETPLSALGIQDGCRVMLIGKKNSPQEEVELKKLKHLEKSVEKIADQLEELNKELTGIQQGFLPKDLQAEALCKLDRRVKATIEQFMKILEEIDTLILPENFKDSRLKDKGLVKKVQAFLAECDTVEQNICQETERLQSTNFALAE [chain 1 R193D] | -0.55 log2

Variants of: B2
Experiment: TAP pull-down interactome analysis (LC-MS/MS)
Details: with PDIA3 [human (endogenous in MCF-7 and MCF-12A)]; MCF-7 cells; read off a plot

Row | Variant | screen value
5 | chain 1 MNRSQEVTRDEESTRSEEVTREEMAAAGLTVTVTHSNEKHDLHVTSQQGSSEPVVQDLAQVVEEVIGVPQSFQKLIFKGKSLKEMETPLSALGIQDGCRVMLKGKKNSPQEEVELKKLKHLEKSVEKIADQLEELNKELTGIQQGFLPKDLQAEALCKLDRRVKATIEQFMKILEEIDTLILPENFKDSRLKRKGLVKKVQAFLAECDTVEQNICQETERLQSTNFALAE [chain 1 I103K] | -0.07 log2
6 | chain 1 MNRSQEVTRDEESTRSEEVTREEMAAAGLTVTVTHSNEKHDLHVTSQQGSSEPVVQDLAQVVEEVIGVPQSFQKLIFKGKSLKEMETPLSALGIQDGCRVMLIGKKNSPQEEVELKKLKHLEKSVEKIADQLEELNKELTGIQQGFLPKDLQAEALCKLDDRVKATIEQFMKILEEIDTLILPENFKDSRLKRKGLVKKVQAFLAECDTVEQNICQETERLQSTNFALAE [chain 1 R161D] | -1.5 log2
7 | chain 1 MNRSQEVTRDEESTRSEEVTREEMAAAGLTVTVTHSNEKHDLHVTSQQGSSEPVVQDLAQVVEEVIGVPQSFQKLIFKGKSLKEMETPLSALGIQDGCRVMLIGKKNSPQEEVELKKLKHLEKSVEKIADQLEELNKELTGIQQGFLPKDLQAEALCKLDREVKATIEQFMKILEEIDTLILPENFKDSRLKRKGLVKKVQAFLAECDTVEQNICQETERLQSTNFALAE [chain 1 R162E] | -0.62 log2
8 | chain 1 MNRSQEVTRDEESTRSEEVTREEMAAAGLTVTVTHSNEKHDLHVTSQQGSSEPVVQDLAQVVEEVIGVPQSFQKLIFKGKSLKEMETPLSALGIQDGCRVMLIGKKNSPQEEVELKKLKHLEKSVEKIADQLEELNKELTGIQQGFLPKDLQAEALCKLDRRVKATIEQFMKILEEIDTLILPENFKDSRLKDKGLVKKVQAFLAECDTVEQNICQETERLQSTNFALAE [chain 1 R193D] | -0.1 log2

— PMC8384158
